Here are results for 1 molecule from patent publication US20150218243A1 (SAMSUNG ELECTRONICS, published 2015).

For this test, the target named is T1, recombinant full length Human Cdk6 (amino acids 1-326) with N-terminal His tag (Abcam ab84717) (human, UniProt Q00534 1-326).
T1 construct: range 1-326; Bought protein, coated on the ELISA plate at 1 ug/ml; also called Cdk6 protein; not shown: N-terminal His tag of the bought protein
Put plainly: ELISA, Cdk6 coated on plate, p15 variant at 0-10 uM, anti-GST primary and HRP secondary antibody, absorbance 450 nm.

T1 sequence (Q00534 whole entry, the tested form may be a part): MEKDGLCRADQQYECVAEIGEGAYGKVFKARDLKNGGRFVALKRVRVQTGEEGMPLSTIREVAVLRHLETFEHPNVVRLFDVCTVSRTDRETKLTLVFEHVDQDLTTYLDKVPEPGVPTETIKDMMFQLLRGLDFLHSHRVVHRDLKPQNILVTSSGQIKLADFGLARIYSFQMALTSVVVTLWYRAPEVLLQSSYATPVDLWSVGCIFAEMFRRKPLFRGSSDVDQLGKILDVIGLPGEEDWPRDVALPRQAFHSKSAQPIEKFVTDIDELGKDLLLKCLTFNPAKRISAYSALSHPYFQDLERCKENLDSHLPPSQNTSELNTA

B1: human p15 protein variant (SEQ ID NO: 2) (other)
chain: MREENKGMPSGGGSDEGLASAAARGLVEKVRQLLEAGADPNGVNRFGRRAIQVMMMGSARVAELLLKHGAEPNSADPATSTRPVHDAAREGFLDTLVVLHRAGARLDARDAWGRTPVDLAEERGHRDVAGYLRTATGD
notes: Expressed in E. coli from pET21b (NdeI/XhoI) and purified on a HisTrap column and by SEC; also called mt p15; p15INK4b variant
As for B1, the binding result is listed as “binds”.
